The source of these data is PMC10045213.

As usually defined, the Kd is the concentration at which binding is half-saturated.

This assay has as its target p75 NeuroTrophin Receptor (UniProt P08138). Briefly: SPR; TrkA immobilized at 8860 RU, p75NTR immobilized at 4320 RU; 1.7-15 nM hNGF R100W flowed over; curves blank subtracted. A general note: SPR reads the build-up and loss of mass on a sensor chip optically.
Sequence of UniProt P08138 (P08138 29-427): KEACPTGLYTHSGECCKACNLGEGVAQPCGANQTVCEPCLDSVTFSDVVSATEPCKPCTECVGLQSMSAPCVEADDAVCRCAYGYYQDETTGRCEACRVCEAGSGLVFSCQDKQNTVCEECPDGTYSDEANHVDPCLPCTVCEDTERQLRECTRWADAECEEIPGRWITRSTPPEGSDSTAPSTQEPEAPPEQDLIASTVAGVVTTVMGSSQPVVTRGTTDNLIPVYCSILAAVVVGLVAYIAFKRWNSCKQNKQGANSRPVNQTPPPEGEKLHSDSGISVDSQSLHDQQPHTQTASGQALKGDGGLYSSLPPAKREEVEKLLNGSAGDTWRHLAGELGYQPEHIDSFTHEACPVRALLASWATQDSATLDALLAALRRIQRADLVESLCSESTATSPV

“human NGF R100W (from UniProt P01138 122-241) (ligand)” displayed a Kd of 0.1 µM.
